# Data as given in US6987169.
# Biological target: hIK1 intermediate conductance, calcium-activated potassium channel (human) (UniProt O15554)
# Experiment: cell-based or functional assay
# hIK1 intermediate conductance, calcium-activated potassium channel (human), sequence (O15554 other isoform, or with tags, fused parts or gaps): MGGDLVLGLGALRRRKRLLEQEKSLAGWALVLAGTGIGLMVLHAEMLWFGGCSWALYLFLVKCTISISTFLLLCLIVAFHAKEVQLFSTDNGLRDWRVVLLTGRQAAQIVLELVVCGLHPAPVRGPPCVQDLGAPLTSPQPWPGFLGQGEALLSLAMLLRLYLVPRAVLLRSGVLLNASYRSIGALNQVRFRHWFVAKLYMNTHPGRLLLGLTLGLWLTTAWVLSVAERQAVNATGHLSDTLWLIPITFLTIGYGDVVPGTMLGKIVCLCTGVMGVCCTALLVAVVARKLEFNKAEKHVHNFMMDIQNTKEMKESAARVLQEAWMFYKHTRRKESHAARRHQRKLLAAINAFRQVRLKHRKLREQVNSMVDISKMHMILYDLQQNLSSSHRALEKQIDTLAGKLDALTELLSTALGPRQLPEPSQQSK
# iberiotoxin, sequence (P24663 whole entry): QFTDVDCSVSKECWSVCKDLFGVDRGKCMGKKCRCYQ
substance,measurement,value
iberiotoxin (from UniProt P24663 1-37) (peptide),percent block of hIK1 currents at 50 nM,15%
